Reference: publication PMC4856149
Like-named read-outs stand apart in the source and are kept apart here.

Columns and labels:
recombinant GST-Arc [1] = target: recombinant GST-Arc (UniProt Q63053); assay: Scatchard analysis
recombinant GST-Arc [2] = target: recombinant GST-Arc (UniProt Q63053); assay: Scatchard analysis; remark: listed apart in the source

UniProt Q63053, sequence (Q63053 whole entry): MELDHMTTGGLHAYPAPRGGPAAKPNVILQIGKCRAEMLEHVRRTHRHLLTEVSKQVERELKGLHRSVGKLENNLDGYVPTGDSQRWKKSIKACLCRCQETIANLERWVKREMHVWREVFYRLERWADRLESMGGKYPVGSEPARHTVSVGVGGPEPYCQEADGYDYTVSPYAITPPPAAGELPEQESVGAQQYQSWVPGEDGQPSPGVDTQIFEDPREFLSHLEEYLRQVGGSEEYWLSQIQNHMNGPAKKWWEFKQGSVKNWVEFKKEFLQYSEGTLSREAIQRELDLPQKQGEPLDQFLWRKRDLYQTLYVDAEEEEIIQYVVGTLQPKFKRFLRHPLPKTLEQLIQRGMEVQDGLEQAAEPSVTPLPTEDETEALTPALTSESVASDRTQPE

Kd (recombinant GST-Arc [1]): 10 µM
Kd (recombinant GST-Arc [2]): 60 µM
Substance: recombinant CaMKIIα (from UniProt P11275 1-478) (enzyme)
